Experimental data: US6949624

Key:
[1] = target: human nuclear receptor co-repressor (HuN-CoR), 2,440 amino-acid polypeptide (human) (UniProt O75376); assay: cell-based or functional assay
[2] = target: AML1/ETO chimeric fusion protein (UniProt Q01196); assay: cell-based or functional assay
Chain of UniProt Q01196 (Q01196 other isoform, or with tags, fused parts or gaps mutant limits assumed): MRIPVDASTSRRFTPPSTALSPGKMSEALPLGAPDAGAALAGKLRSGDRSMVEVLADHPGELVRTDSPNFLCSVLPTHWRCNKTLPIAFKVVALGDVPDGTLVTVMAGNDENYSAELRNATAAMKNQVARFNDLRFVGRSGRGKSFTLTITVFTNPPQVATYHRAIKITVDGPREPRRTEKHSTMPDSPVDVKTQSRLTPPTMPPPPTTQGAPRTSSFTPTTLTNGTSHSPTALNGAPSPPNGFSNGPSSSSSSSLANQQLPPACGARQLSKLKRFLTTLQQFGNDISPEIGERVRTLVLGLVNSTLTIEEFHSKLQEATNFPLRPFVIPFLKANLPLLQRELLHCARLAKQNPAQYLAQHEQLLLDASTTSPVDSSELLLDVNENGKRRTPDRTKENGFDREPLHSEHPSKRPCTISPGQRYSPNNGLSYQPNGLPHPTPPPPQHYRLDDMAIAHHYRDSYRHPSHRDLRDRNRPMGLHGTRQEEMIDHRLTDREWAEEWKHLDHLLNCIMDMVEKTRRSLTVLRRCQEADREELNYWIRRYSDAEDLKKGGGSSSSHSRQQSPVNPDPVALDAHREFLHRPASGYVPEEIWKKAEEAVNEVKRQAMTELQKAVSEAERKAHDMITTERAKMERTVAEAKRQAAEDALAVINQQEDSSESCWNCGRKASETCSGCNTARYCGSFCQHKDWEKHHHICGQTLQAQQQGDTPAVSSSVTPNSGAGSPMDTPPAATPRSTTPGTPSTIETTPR

Chain of UniProt O75376 (O75376 other isoform, or with tags, fused parts or gaps limits assumed): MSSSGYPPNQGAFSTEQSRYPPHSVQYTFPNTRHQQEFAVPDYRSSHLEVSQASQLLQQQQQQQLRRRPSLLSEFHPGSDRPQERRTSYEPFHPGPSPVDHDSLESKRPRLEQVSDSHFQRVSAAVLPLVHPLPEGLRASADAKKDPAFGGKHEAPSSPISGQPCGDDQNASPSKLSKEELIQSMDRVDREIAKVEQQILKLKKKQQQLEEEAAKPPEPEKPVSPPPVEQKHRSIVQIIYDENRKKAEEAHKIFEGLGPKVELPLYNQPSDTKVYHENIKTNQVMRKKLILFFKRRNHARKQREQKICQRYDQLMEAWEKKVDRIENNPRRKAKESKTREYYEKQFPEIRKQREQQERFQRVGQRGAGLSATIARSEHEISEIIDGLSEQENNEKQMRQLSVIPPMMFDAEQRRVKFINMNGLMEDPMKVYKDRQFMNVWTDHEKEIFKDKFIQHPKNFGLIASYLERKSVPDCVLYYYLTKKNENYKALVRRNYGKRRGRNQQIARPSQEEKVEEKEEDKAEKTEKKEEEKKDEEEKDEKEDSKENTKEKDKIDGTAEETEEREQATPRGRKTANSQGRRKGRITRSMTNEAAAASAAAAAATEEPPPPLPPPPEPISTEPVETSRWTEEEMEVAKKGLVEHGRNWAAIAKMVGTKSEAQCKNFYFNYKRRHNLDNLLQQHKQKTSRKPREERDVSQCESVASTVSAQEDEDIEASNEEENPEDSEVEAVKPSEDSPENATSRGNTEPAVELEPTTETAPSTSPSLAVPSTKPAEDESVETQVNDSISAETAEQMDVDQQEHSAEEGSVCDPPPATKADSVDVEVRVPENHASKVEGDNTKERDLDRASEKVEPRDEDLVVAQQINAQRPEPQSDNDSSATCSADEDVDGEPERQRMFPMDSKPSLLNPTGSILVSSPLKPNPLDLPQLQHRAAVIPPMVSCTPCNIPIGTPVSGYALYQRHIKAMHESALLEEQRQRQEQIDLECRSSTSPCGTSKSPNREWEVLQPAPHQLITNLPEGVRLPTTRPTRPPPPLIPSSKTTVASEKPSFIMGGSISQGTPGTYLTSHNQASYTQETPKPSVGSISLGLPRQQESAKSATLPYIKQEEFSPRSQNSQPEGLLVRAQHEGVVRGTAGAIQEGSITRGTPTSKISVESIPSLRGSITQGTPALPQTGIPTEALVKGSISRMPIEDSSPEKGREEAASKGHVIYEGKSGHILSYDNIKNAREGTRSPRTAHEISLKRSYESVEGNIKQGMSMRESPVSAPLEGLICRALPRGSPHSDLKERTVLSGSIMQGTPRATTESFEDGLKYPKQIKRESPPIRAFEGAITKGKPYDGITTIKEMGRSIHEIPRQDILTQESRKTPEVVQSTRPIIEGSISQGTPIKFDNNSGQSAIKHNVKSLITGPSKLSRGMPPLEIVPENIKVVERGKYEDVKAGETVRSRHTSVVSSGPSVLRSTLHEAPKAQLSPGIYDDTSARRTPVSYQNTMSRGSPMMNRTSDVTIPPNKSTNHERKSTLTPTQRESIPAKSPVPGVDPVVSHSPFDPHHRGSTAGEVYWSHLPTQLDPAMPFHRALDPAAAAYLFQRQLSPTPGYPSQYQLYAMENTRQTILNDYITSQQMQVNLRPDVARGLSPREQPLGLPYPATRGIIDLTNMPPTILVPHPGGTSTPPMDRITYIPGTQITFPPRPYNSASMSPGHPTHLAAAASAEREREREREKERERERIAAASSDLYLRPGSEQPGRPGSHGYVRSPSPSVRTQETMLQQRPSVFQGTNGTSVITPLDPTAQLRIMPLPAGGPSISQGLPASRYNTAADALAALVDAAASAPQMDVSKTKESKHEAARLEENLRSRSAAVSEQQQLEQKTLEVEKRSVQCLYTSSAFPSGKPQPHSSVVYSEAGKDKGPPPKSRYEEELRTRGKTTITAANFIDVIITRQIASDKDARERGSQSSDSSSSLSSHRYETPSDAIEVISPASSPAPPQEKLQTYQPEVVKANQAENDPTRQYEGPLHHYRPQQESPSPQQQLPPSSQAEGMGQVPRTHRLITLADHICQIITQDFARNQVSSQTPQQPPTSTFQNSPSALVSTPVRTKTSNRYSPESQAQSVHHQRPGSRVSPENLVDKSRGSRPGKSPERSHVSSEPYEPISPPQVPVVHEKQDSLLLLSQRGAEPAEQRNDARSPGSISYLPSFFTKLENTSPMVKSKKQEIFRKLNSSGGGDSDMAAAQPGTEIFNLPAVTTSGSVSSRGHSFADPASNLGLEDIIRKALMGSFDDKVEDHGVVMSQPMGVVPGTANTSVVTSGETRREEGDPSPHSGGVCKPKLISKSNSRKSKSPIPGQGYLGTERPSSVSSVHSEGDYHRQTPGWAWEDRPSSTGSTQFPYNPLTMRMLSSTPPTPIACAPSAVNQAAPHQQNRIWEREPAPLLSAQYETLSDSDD

Substance | transduced Kasumi-1 cells positive for CD13 expression (flow cytometry) [1] | transduced Kasumi-1 cells positive for annexin staining (flow cytometry) [1] | transduced Kasumi-1 cells positive for CD13 expression (flow cytometry) [2] | transduced Kasumi-1 cells positive for annexin staining (flow cytometry) [2]
zinc-finger domains of ETO (ETOZn) fused with enhanced green fluorescent protein (from UniProt Q06455 510-556) | 89% | 97% | – | –
ETO-interacting domain of N-CoR (NCoREID) fused with enhanced green fluorescent protein | – | – | 87% | 97%
